From US20110243992

Test system: iron co-factored superoxide dismutase (SodA) of M. tuberculosis/BCG, wild type, as produced by BCG

mutant SodA ΔE54 (also contains H28R substitution)
total SOD activity, 3D-BCG (ΔE54 SodA mutant put into DD-BCG) versus DD-BCG: FIG. 16; 16-fold reduction
total SOD activity, ΔE54 SodA mutant in BCG or SIG-BCG: FIGS. 4, 14; 2- to 4-fold reduction
